The values below come from the nanobody polyreactivity screen of Harvey et al. (2022).

The nature of this data set: yeast display, Sf9 membrane polyspecificity reagent, FACS + sequencing; frameworks hold sequencing errors. An outline of the steps: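 After 36–48 hours of galactose induction, yeast (Saccharomyces cerevisiae BJ5465) displaying a synthetic nanobody library were stained at 4 °C for 1 hour with 10% biotinylated, detergent-solubilized Sf9 membrane reagent. Streptavidin microbeads enriched the stained cells before FACS sorting into low and high (top ~1%) gates on anti-HA and streptavidin fluorescence. Each clone's polyreactivity label reflects its gate of origin.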
For the sequence “QVQLVESGGGLVQAGGSLRISCAASGLIFAIYAMGWYRQAPGKERELVAAIRWSGASPYADSVKGRFTISRDNAKKTVYLQMNSLKPEDSAVYYCAADDLLDYDYWGQGTQVTVSA”, the “polyreactivity (PSR sort gate)” value is given as “low polyreactivity”.
As to “QVQLVESGGGLVQAGGSLRISCAASGRICWNYALGWYRQAPGKEMELVASISYRGGSTYYADSVKGRVTISRDYAKNTVYLQMNSLKPEDTAVYYCAARSRQARRTDYGYWGQGTQVTVSS”, the “polyreactivity (PSR sort gate)” value is recorded as “high polyreactivity”.
In the case of “QVQLVESGGGLVQAGGSLRISCAASGRIFATNAMGWYRQAPGKERELVATITRSAGRTYYADSVKGRFTISRDTAKNTVYLQMNSLKPEDNAVYYFAASYGDTEPGYREYDYWGQGTQVTVSS”, the “polyreactivity (PSR sort gate)” value is reported as “low polyreactivity”.
The same measure for “QVQLVESGGGLVQAGGSLRISCAASGRIFGKNALGRYRQAPGKERDLVAAITGSGGSTYYADSVKGRFTISRDNAKNTVYLQMNSLKPEDTAVYYCATAYAVYHVEYGYWGQGTQVTVSS”: “low polyreactivity”; for “QVQLVESGGGLVQAGGSLRISCAASGRIFHANAMGWYRQAPGKERELLAGISRNGGRTYYADSVKGRFTISRDNAKYTVYLQMNSLKPEDTAVYYCAADGLTGSKYRATGYYWGQGTQVTVSS”: “high polyreactivity”; for “QVQLVESGGGLVQAGGSLRISCAASGRIFYFNGMGWYRQAPGKERELVAAITSGGSTYYADSVKGRFTISRDNAKNTVYLQMNSLKPEDTAVYYCAAQNAWWSNGRSYDYWGQGTQVTVSS”: “low polyreactivity”.
As for “QVQLVESGGGLVQAGGSLRISCAASGRIFYYNAIGWYRQAPGKERELVATITGSGGSSYYADSVKGRFTISRDNAKNTVYLQMKTLKPEDSAVYYCIASRWYYDFYNLDYWGQGTQVTVSS”, the “polyreactivity (PSR sort gate)” value was “low polyreactivity”.
Then “QVQLVESGGGLVQAGGSLRISCAASGRTCNHYTMGWYRPAPGKERELVAAITSGGSTYYADSVKGRFTISRDNAKNTVYLQMNSLKPEDTAVYYCARVRPLYHYSRYDYWGQGTQVTVSS”, with “high polyreactivity”.
Regarding “QVQLVESGGGLVQAGGSLRISCAASGRTFDINAMGWYSPAPGKERELVAAISSRGGTTFYADSVKGRFTISRDNAKNTVYLKMNSLKPEDSAVYYCAAVTSYYYTEEDYWGQGTQVTVSS”, the “polyreactivity (PSR sort gate)” value was “low polyreactivity”.
Then “QVQLVESGGGLVQAGGSLRISCAASGRTFDPYAMGWYRQAPGKERELVAAITSGGSTYYADTVKGRFTISRDNAKNTVYLQMNSLTPEDTAVYYCAKPYYRLEDYWGQGTQVTVSS”, with “low polyreactivity”.
Then “QVQLVESGGGLVQAGGSLRISCAASGRTFFGNAMGWYRQAPGKERELGASISTRGGSTYYADSVKGRFTISRDNAKNTVYLQINSLKPADTAVYDCAAPSQSRGYYYWGQGTQVNVSS”, with “high polyreactivity”; and “QVQLVESGGGLVQAGGSLRISCAASGRTFFHYAMGWYRQAPGKERELVAGITSGGRTKYADSVKGRFTISRDNAKKTVYLQKNSMKPEDTAVYVCAASYIVWLTRGSPRKLFDYWGQGSQVTVSS”, with “high polyreactivity”.
The same measure for “QVQLVESGGGLVQAGGSLRISCAASGRTFGANAMGWYRQAPGKERELVASISRSGGTTYYADSVKGRFTISRDNAKNTVYLQMNSLKPEDTAVYYCAAQYVRYGHYYWGQGTQVTVSS”: “high polyreactivity”; for “QVQLVESGGGLVQAGGSLRISCAASGRTFHYNVMGWYTQAPGKERELVAAITNTGGSTYYADSVKGRFTISRDNAKNTVYLQMNSLKPEDTAVYYCAAVIWGRRYGAYPYEYWGQGTQVTVSS”: “low polyreactivity”; for “QVQLVESGGGLVQAGGSLRISCAASGRTFKRYAMGWYRQAPGKERELVAAITGTGAITYYADSVKGRFTISRDNAKNTVYLQMNSLKPEDTAVYYCNARYWYRYGGYKPVGGYYWGQGTQVTVSS”: “high polyreactivity”.
Turning to “QVQLVESGGGLVQAGGSLRISCAASGRTFRYYGMGWYRQPPAKERVVAAITWSGDTTYYADSVKGRFTISRDNAKNTVYLQMNSLKPEDTAVYYFAAQSWHRYYYWGQGTQVTVSS”, the “polyreactivity (PSR sort gate)” value is listed as “high polyreactivity”.
Consider “QVQLVESGGGLVQAGGSLRISCAASGRTFWKYVRGWYRQAPGKERELVAVISRPAGSTYYADSVKGRFTISRDNAKNTVYLQMNSLKPEDTAVYYCAKRPKNKPVLGDYDHWGQGTQVTVSS”, for which the “polyreactivity (PSR sort gate)” value is “low polyreactivity”.
Then “QVQLVESGGGLVQAGGSLRISCAASGRTFYNNAMGWYRQAPGTERELVATIHNRGGTTYYADSVKGRFTISRYNAKNTVYLLMNSLKPEDTAVYYCAKSAQRYSYRYYYWGQGTQVTVSS”, with “high polyreactivity”; and “QVQLVESGGGLVQAGGSLRISCAASGRTLGGYTMGWYRQAPGKERELVAAITGSGSNTYYADSVKGRFTISRDNAKNTVYLQMNSLKPEDTAVYYCAAPYSYRTWYPYGYWGQGTQVTLSS”, with “high polyreactivity”.
Then “QVQLVESGGGLVQAGGSLRISCAASGSIFGGYSMGWYRQAPGKERELVAAIRYSGVSTYYADSVKGRFTISRDNAKYTVYFQMNSLKAEDTAVYYCNAVPFYYHYDYWGQGTQVTVSS”, with “high polyreactivity”; and “QVQLVESGGGLVQAGGSLRISCAASGSIFGYNTMGWYRQAPGKERELVAAIRGSDSSTYYADSVKGRFTISRDNAKNTVYLQMNSVIPEDTAVYYCAAKYYWGQGTQVTVSS”, with “high polyreactivity”; and “QVQLVESGGGLVQAGGSLRISCAASGSIFLKYAMGWYRQAPGKERELVAAITWTDDRTYYADSVKGRFTISRDNAKNTVYLQMNSLKPEDTAVYYCNTATSKSSYRHYDYWGQGTQVTVSS”, with “high polyreactivity”.
The same measure for “QVQLVESGGGLVQAGGSLRISCAASGSILTHYAMGWYRQAPGKERELVADINSGGGTSYADSVKGRFTISRDNAKNTVYLQMNSLKPEDTAVYYCAAAWWPYRYPTYYSQFDYWGQGTQVTVSS”: “low polyreactivity”; for “QVQLVESGGGLVQAGGSLRISCAASGSISVRNVMGWYRHAPGKERELVATIRRTGGSTSYADSVKGRFTISRDNAKNTVYLQMNSLKPEDPAVYYCAAVGYTTYRRYDYWGQGTQVTVSS”: “low polyreactivity”; for “QVQLVESGGGLVQAGGSLRISCAASGSNFAYYAMGWYRQAPGKERELVAAITRGGRTYYADSVKGRFTISRDNAKNTVYLQMNSLKPEDTAVYYCNARNYTWYSSRFMRFDYWGLGTQVTVSS”: “high polyreactivity”.
With “QVQLVESGGGLVQAGGSLRISCAASGSSYGTYAMGWYRKAPGKERELVAAINFSGTSTYYADSVKGRFTISRDKAKHTVYLQMNRLKPEETADYYCAARFYWKYGRYDNWGQGTQVTVSS”, the “polyreactivity (PSR sort gate)” value is “high polyreactivity”.
Then “QVQLVESGGGLVQAGGSLRISCAASGSTFDPNVMGWYRQAPGKERELVAVITTTGVSTYYADSVKGRFTISRDNAKNTVYLQMNSLKPEETAVYYCNAKWYWYLTRDDFRYRYTYDYWGQGTQVTVSS”, with “low polyreactivity”; and “QVQLVESGGGLVQAGGSLRISCAASGSTFDRNAMGWYRQPPGKERELVAAISSSGGRTYYADSVKGRFTISRDNAKNTVYLQMNSLKPEDTPVYYCAAAFSLGMYWGKGTQVTVSS”, with “high polyreactivity”.
Turning to “QVQLVESGGGLVQAGGSLRISCAASGSTFKGYAMGWYRQSPGKERELVAAISRSGTRTYYADSVKVRFTISRDTAKNTVYLQMNSLNPEDTAVYSCNKDTGYIAHDNENGRDYWGQGTQVTVSS”, the “polyreactivity (PSR sort gate)” value was “low polyreactivity”.
Then “QVQLVESGGGLVQAGGSLRISCAASGSTFKRNVMGWYRQAPGKERELVAAISRTDGRTYYADSVKGRFTISRDNAKNSVYLEMNSLKPEDTAVYYCAATTGHRTYRYYYWGHGTQVTVSS”, with “high polyreactivity”; and “QVQLVESGGGLVQAGGSLRISCAASGSTFRGYAMGGYRQAPGKERDLVAAMSSNGDRTFYADSVKGRFTISRDNAMNTVYLLMNSLKAEDTAVYYCNAVYSGSWQLYGYWGQGSQVTVSS”, with “high polyreactivity”.
Then “QVQLVESGGGLVQAGGSLRISCAASGSTFRRYAMGWYRQAPGKEREFVAVITSSGVITYYADSVKGRFTISRDNAKNTVYLQMNSLKPEDTAVYYCATDARSMDYWGQGTQVTVSS”, with “low polyreactivity”.
Then “QVQLVESGGGLVQAGGSLRISCAASGSTFSYYAMGWYRQAPGKERELVAAISSRGGSTYYADSVKGRFTISRDNAKNTVYLQMNSLKPEDTAVYYCAAVRNRHGYDYWGQGTQVTVSS”, with “high polyreactivity”; and “QVQLVESGGGLVQAGGSLRISCAASGSTFYHNVMGWYRPAPGKERELVASIDTGDSTNYADSVKGRFTISLDNAKNTVYLQMNSLKPEDTAVYYCNADSYPALNKRGYDYWGQGTQVTVSA”, with “low polyreactivity”; and “QVQLVESGGGLVQAGGSLRISCAASGSTIQQYAMGRYRQAPGKEREFVAAISWRGGRTYYADSVKGRFTISRDNAKNTVYLQMNSLKPEDTAVYYCAVDPSIYRLSAYYYDYWGQGTQVTVSS”, with “low polyreactivity”.
For the sequence “QVQLVESGGGLVQAGGSLRISCAASGYTFPFYTMGWYRQAPGKERELVAAINSGGSTYYADSVKGRFTISRDNAKNTVYLQMNRLKPEDTAVYYCAVEGGFRVRYQAQYRFYYWGQGTEVTVSS”, the “polyreactivity (PSR sort gate)” value is recorded as “high polyreactivity”.
The same measure for “QVQLVESGGGLVQAGGSLRISCAASVSIFPGYAMGWSRQAPGKERELVATITWSGGSTYYADSVKGRFTISRDNAKNTVYLQMNSLKPEDTAVYYCNADSNWYYQWNYYCLYDYWGQGTQVTVSS”: “low polyreactivity”; for “QVQLVESGGGLVQAGGSLRISCAAYGSTIVTNAMGWYRQAPVKERELVAASTSGAGTYYADSVKGRFTISRDNAKNTVYLQMNCLKTEDTAVYYCAARRYYSSGRYRFGYWGQGSQVTVSS”: “high polyreactivity”; for “QVQLVESGGGLVQAGGSLRISCADSGSIFSLYAMGWYRPAAGKERELVAAIRRGGSTYYADSVKGRFTISRDNAKNTVYLQMNSLIPEDTAVYYCAADAYSGYSDYYWGQGTHVTVSS”: “low polyreactivity”.
For “QVQLVESGGGLVQAGGSLRISCADSGSIFTYNAMGWYRQAPGKERELVAAITSSSGSSTYADSVKGRFTISRDNAKYTVYLQMNSLKPEDTAVYYCAAPILSFPSPYVQYDYWGQGTQVTVSS”, the “polyreactivity (PSR sort gate)” value is “low polyreactivity”.
Then “QVQLVESGGGLVQAGGSLRISCAPSGIIFYQNTMGWYRQAPGKERELVATITKRGGSSYYADSVKGRFTISRDNAKNTVYLQMNSLKPEDTAVYYCNAAKYAASYIGYGYWGQGTQVTVSS”, with “high polyreactivity”.
